In series [1] the target is T1, Tailor-C (Drosophila melanogaster, UniProt Q9VI58, D343A).
T1 construct: core catalytic domain, residues 202-560; N-terminal 8xHis-SUMO tag cut by ULP1; E. coli host
Nature of the series: X-ray crystal structure (crystal soaking), […] A. The settings on record: D343A crystals soaked with 10 mM UTP and 20 mM MgCl2 for 10 min; active site of catalytic groove. It counts as binding.

The target in series [2] is T2, Tailor-ZnC (Drosophila melanogaster, UniProt Q9VI58).
T2 construct: core domain with possible N-terminal C2H2 zinc finger, residues 137-560; N-terminal 8xHis-SUMO tag cut by ULP1; E. coli host
Nature of the series: in-vitro nucleotide transferase assay, denaturing PAGE of Cy5-labelled RNA. Type of series: biochemical. The settings on record: 1 mM UTP, 200 nM Cy5 truncated pre-mir-1003, 10 mM MgCl2, pH 7.2, 25 °C.

Series [3] concerns the target Tailor-C (Drosophila, UniProt Q9VI58 202-560). Briefly: crystal structure; EMSA: 25 mM Tris-HCl pH 7.2, 100 mM NaCl, 5 mM DTT, 500 nM Cy5-RNA, 0-2.5 uM protein, 30 min on ice; 6% native gel at 4 C. The settings on record: protein: recombinant; tags: 8xHis-SUMO tag removed by ULP1; single strand.
For series [4], the target named is Tailor-C V328L (Drosophila, UniProt Q9VI58 202-560, V328L). Nature of the series: EMSA; no Mg2+ added; EMSA: 25 mM Tris-HCl pH 7.2, 100 mM NaCl, 5 mM DTT, 500 nM Cy5-RNA, 0-2.5 uM protein, 30 min on ice; 6% native gel at 4 C. To be noted: protein: recombinant; tags: 8xHis-SUMO tag removed by ULP1; label: 5'-Cy5; single strand. (In general: In EMSA bound probe runs differently from free probe, usually more slowly.)

Series [5] has as its target Tailor-C V328I (Drosophila, UniProt Q9VI58 202-560, V328I). The description is as above. The settings on record: protein: recombinant; tags: 8xHis-SUMO tag removed by ULP1; label: 5'-Cy5; single strand.
The target of series [6] is Tailor-C V328R (Drosophila, UniProt Q9VI58 202-560, V328R). The description is as above. To be noted: protein: recombinant; tags: 8xHis-SUMO tag removed by ULP1; label: 5'-Cy5; single strand.
Tailor-C V328R, sequence (Q9VI58 202-560 V328R): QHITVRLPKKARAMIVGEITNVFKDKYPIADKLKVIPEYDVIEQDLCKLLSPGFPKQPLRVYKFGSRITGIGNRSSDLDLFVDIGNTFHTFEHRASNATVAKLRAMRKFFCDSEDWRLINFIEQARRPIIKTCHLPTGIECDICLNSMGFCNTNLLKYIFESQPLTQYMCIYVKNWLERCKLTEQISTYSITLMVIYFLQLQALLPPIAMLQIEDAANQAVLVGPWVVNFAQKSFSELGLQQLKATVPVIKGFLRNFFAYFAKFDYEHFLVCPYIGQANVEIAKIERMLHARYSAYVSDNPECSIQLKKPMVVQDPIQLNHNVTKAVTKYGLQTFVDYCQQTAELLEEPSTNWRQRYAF

Tailor-C (Drosophila, UniProt Q9VI58 202-560), sequence (Q9VI58 202-560): as the sequence (Q9VI58 202-560 V328R) above, with R127V counted along it
T1 sequence (Q9VI58 202-560 D343A): as the sequence (Q9VI58 202-560 V328R) above, with R127V, D142A counted along it
Tailor-C V328L, sequence (Q9VI58 202-560 V328L): as the sequence (Q9VI58 202-560 V328R) above, with R127L counted along it
Tailor-C V328I, sequence (Q9VI58 202-560 V328I): as the sequence (Q9VI58 202-560 V328R) above, with R127I counted along it
T2 sequence (Q9VI58 137-560): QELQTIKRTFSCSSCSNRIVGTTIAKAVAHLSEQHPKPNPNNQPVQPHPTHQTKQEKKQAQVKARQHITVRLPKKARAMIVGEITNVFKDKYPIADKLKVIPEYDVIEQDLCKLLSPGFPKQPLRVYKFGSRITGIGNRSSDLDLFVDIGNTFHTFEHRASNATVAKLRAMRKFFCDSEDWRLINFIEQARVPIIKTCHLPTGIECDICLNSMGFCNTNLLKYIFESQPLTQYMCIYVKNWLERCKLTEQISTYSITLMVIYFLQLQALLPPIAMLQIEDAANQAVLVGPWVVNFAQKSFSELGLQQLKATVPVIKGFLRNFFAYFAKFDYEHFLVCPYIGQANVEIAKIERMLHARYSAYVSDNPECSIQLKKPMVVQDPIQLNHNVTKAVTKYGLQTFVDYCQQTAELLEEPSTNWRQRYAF

On to `O=c1ccn([C@@H]2O[C@H](COP(=O)(O)OP(=O)(O)OP(=O)(O)O)[C@@H](O)[C@H]2O)c(=O)[nH]1` [UTP], for which the “X-ray crystal structure (crystal soaking), 1.74 A” value in series [1] is recorded as “The crystals of the complex of D343A with UTP were obtained by soaking crystals”. For the same molecule, the “in-vitro nucleotide transferase assay, denaturing PAGE of Cy5-labelled RNA” value in series [2] is “Purified Tailor-ZnC, Tailor-C and mutants were assayed for oligouridylation activity”.

Take AGUU (ssRNA): the binding result in series [3] was “binds”.

With UUUU (ssRNA) [U4], in series [3], the binding result is reported as “binds”. Take AGU (ssRNA): the binding result in series [3] is recorded as “binds”. Take CAUAUUCACAG (ssRNA) [truncated miR-1003 (3'G)]: the binding result in series [4], in series [5] and in series [6] was “binds” throughout.

(Values after publication PMC6326804, “Structural insights into a unique preference for 3′ terminal guanine of mirtron in Drosophila TUTase tailor” (Nucleic Acids Research, 2018).)
